From PMC3998876 come the findings set out here.

The target in this test is biotinylated mouse Izumo1Cd4d3+4 (entire ectodomain, bait form) (mouse) (UniProt Q9D9J7). Description: SPR. (In SPR one partner is held on a chip, and binding of the other changes the refractive index at the surface.)
Sequence of UniProt Q9D9J7 (Q9D9J7 22-319): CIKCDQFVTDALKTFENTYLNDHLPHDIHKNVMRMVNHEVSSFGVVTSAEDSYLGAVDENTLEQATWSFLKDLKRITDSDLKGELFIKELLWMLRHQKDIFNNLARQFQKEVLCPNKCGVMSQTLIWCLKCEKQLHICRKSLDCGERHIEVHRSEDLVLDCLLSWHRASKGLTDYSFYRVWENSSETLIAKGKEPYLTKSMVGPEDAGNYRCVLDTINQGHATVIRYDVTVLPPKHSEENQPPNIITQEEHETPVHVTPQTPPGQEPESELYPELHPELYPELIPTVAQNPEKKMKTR

For “mouse JunoCd4d3+4-6His (purified soluble Juno ectodomain) (from UniProt Q9EQF4 20-222) (domain or fragment)”, the Kd (in general, a measure of binding affinity in units of concentration) came to 12 µM.
